# Measurements as given in article PMC3913770, “Characterization of New Polyol/H^+ Symporters in Debaryomyces hansenii” (PLoS ONE, 2014).
# B1: DhSyl1 (Debaryomyces hansenii CBS767) (protein)
# chain: MSSSAINEKPIMTDSDEANPDVGLFEPSSNSSIVEEKRRVSELESVHSKIAEPGQGEKGNILSQYSEKQVMQMGRNYALKYDMDPDLFASAAALARTPDEFNAMPFLSEEQKEALHKESTKKWHIPSKLIQVIALGSMAAAVQGMDESVINGAVLFYPNYMGVGKGEYNRFGYDTDLLEGLINGAPYLCASCLACWMADSWNRRLGRKWTIFWTCLISAVTCFWQGFTNTWYHLFIARFMLGFGIGIKSATVPAYAAECTPKQIRGALVMLWQFFTAFGIMLGYVACLAFYHVGDHGIGGGLNWRLMLGSACIPAIVVLFQIPFVPESPRWLMGKDRHKDSYDSLCQLRLDKIAAARDTFYQYVLLQEEASYQGIPTWKRLVEMFTIRRNRNGALGAWIVMFMQQFCGINAIVYYNSTIFIRGGFTEVAALTASWGFGMVNFLFAIPTFYTIDTFGRRNLLLLTFPLMSIFLLWTGFGFLASNDQTRIGIVASGVYIFSAIYSAGEGPVPFTYSAEAFPLYIRDLGMGFATATCWFFNFILALTWPKLVSSFTSTGAFGWYAAWNIVGFFLVLWFLPETKGLTLEELDEVFSVSTRKHAKWQTKHFLNGIQRVVLRRHIDPLPPLYEHQKRLAVTNPDWNNKTETAHIE
# notes: full-length ORF (649 aa) without stop, C-terminal GFP, plasmid pUG35, in S. cerevisiae YSH 1172 (strain MLY9); any CUG codon is read as Leu in the host
# B2: DhSyi1 (Debaryomyces hansenii CBS767) (protein)
# chain: MATEDKELGVVITDVSKLSEKIEEQNNIISKGGSVDDYLYEKRPWWKVNYLVRLNFCIFLITLSSTNNGYDGSMLNGLQSVSYWPEKMGNPQGSVLGALSNGNVFGVVLSFVCASWLADKFGRWRCIFVGQTITILGSILQGVSTNYGFFLASRIILGFGVGIAGVSSPSLISELAYPTHRATATTFYNVCWYLGAIIAAWVTYGTLNIENDYSWRIPSYLQAALPCLQIAFFWMVPESPRYLINKDRISDAEKVLRKFHAGGETHERANDLVSFEIEEIQAALEIEKLSSNSRYSDFITMPTFRKRLFLAVFVAVIMQLSGNGLVSYYLNKVLNSIGITDPHEQLKINGCLMVYNLVISSVVASVAGRFKRRSMFLICTILMLVFYVIWTILSAINQQRNFEQKSLGNGVIAMIFFYYLAYDIGANGLPFLYITEIMPYSHRAKGMNIFTVSQNIIIIFNGFVNPIAMDAIEWKYYIVYCCILAVEVITVLFTFVETSAYTLEEVAKVFGDDPGQTLIHLSSAPPKPEVGHIETV
# notes: full-length ORF (536 aa) without stop, C-terminal GFP, plasmid pUG35, in S. cerevisiae YSH 1172 (strain MLY23); any CUG codon is read as Leu in the host
# B3: DhSyl2 (Debaryomyces hansenii CBS767) (protein)
# chain: MPSETNPEKPVALRSDNPHEENGLFEHSSNSSFNEKRRVSELESIHSKIAEPGQGEKGNILSQYSEKQVMQMGRNYALKYDLDPDLFARAAALARTPDDFNAMPFITEEEKQALHKEHTKKWHIPSKLIQVIALGSMAAAVQGMDESVINGALLFYPNYMGVGKGEYNRFGYDTDMIEGLINGAPYLCASCIACWMSDLWNRHLGRKWTIFWTCLISALTCFWQGFTNTWYHLFIARFMLGFGIGIKSATVPAYAAECTPKQIRGALVMLWQFFTAVGIMFGYVACLAFYHVGDHGIGGGLNWRLMLGSACIPAIIVLFQIPFVPESPRWLMGKDRHKDSYDSLCQLRLDKIAAARDTFYQYVLLQEEASYQGIPTWKRLVEMFTIRRNRNGALGAWIVMFMQQFCGINAIVYYNSTIFIQGGFTEVDALTASWGFGMVNFLFAIPTFYTIDTFGRRNLLLFTFPLMALFLIWTGLGFVAEDGTKTQTGIVASGVYIFSAIYSAGEGPVPFTYSAEAFPLYIRDIGMGFATATCWFFNFILALTWPKLVSSFGRTGAFMWYAAWNIAGFFMVLWFLPETKGLTLEELDEVFSVSTRKHAIYQTKSILNSFQRVVLRRHIDPLPPLYEHQKRLAVTNPDWNNKTETAHIE
# notes: full-length ORF (649 aa) without stop, C-terminal GFP, plasmid pUG35, in S. cerevisiae YSH 1172 (strain MLY12); any CUG codon is read as Leu in the host
# Experiments:
# [1] = target: T1, DhSgl1 (Debaryomyces hansenii, UniProt Q6BN62); assay: initial extracellular alkalinization (H+ symport) in unbuffered yeast cell suspension, Michaelis-Menten fit; type: cell-based; conditions: pH 5, proton symport, one H+ per polyol assumed, maltose-grown S. cerevisiae cells
# T1 construct: gene DEHA2E24310g; full-length ORF (626 aa) without stop, C-terminal GFP, plasmid pUG35, in S. cerevisiae YSH 1172 (strain MLY22)
# Description: initial extracellular alkalinization (H+ symport) in unbuffered yeast cell suspension, Michaelis-Menten fit on DhSgl1
# [2] = target: T2, DhSyl1 (Debaryomyces hansenii, UniProt B5RT81); assay: inhibition of [U-14C] sorbitol uptake; type: cell-based; conditions: 1.5 mM [U-14C] sorbitol, 20 mM mannitol
# T2 construct: gene DEHA2C05896g; full-length ORF (649 aa) without stop, C-terminal GFP, plasmid pUG35, in S. cerevisiae YSH 1172 (strain MLY9); any CUG codon is read as Leu in the host
# T2 sequence (B5RT81 1-649): B1 chain
# [3] = substrate: OC[C@@H](O)[C@@H](O)[C@H](O)[C@H](O)CO; assay: initial extracellular alkalinization (H+ symport) in unbuffered yeast cell suspension, Michaelis-Menten fit; type: cell-based, Debaryomyces hansenii; conditions: pH 5, proton symport, one H+ per polyol assumed, maltose-grown S. cerevisiae cells
# Description: (§1) initial extracellular alkalinization (H+ symport) in unbuffered yeast cell suspension, Michaelis-Menten fit on DhSyl1
# [4] = substrate: OC[C@@H](O)[C@H](O)[C@H](O)[C@@H](O)CO; assay: as above; type: cell-based, Debaryomyces hansenii; conditions: pH 5, proton symport, one H+ per polyol assumed, maltose-grown S. cerevisiae cells
# Description: as §1
# [5] = substrate: OC[C@@H](O)[C@@H](O)[C@@H](O)CO; assay: as above; type: cell-based, Debaryomyces hansenii; conditions: pH 5, proton symport, one H+ per polyol assumed, maltose-grown S. cerevisiae cells
# Description: as §1
# [6] = substrate: OC[C@@H](O)[C@@H](O)[C@H](O)[C@@H](O)CO; assay: as above; type: cell-based, Debaryomyces hansenii; conditions: pH 5, proton symport, one H+ per polyol assumed, maltose-grown S. cerevisiae cells
# Description: as §1
# [7] = substrate: OC[C@@H](O)C(O)[C@H](O)CO; assay: as above; type: cell-based, Debaryomyces hansenii; conditions: pH 5, proton symport, one H+ per polyol assumed, maltose-grown S. cerevisiae cells
# Description: as §1
# [8] = substrate: O[C@H]1[C@H](O)[C@H](O)[C@@H](O)[C@H](O)[C@H]1O; assay: as above; type: cell-based, Debaryomyces hansenii; conditions: pH 5, proton symport, one H+ per polyol assumed, maltose-grown S. cerevisiae cells
# Description: initial extracellular alkalinization (H+ symport) in unbuffered yeast cell suspension, Michaelis-Menten fit on DhSyi1
# [9] = substrate: OC[C@@H](O)[C@@H](O)[C@H](O)[C@H](O)CO; assay: as above; type: cell-based, Debaryomyces hansenii; conditions: pH 5, proton symport, one H+ per polyol assumed, maltose-grown S. cerevisiae cells; remark: listed apart in the source
# Description: (§2) initial extracellular alkalinization (H+ symport) in unbuffered yeast cell suspension, Michaelis-Menten fit on DhSyl2
# [10] = substrate: OC[C@@H](O)[C@@H](O)[C@@H](O)CO; assay: as above; type: cell-based, Debaryomyces hansenii; conditions: pH 5, proton symport, one H+ per polyol assumed, maltose-grown S. cerevisiae cells; remark: listed apart in the source
# Description: as §2
# [11] = substrate: OC[C@@H](O)[C@@H](O)[C@H](O)[C@@H](O)CO; assay: as above; type: cell-based, Debaryomyces hansenii; conditions: pH 5, proton symport, one H+ per polyol assumed, maltose-grown S. cerevisiae cells; remark: listed apart in the source
# Description: as §2
# [12] = substrate: OC[C@@H](O)C(O)[C@H](O)CO; assay: as above; type: cell-based, Debaryomyces hansenii; conditions: pH 5, proton symport, one H+ per polyol assumed, maltose-grown S. cerevisiae cells; remark: listed apart in the source
# Description: as §2
# T1 sequence (Q6BN62 entry or part of it): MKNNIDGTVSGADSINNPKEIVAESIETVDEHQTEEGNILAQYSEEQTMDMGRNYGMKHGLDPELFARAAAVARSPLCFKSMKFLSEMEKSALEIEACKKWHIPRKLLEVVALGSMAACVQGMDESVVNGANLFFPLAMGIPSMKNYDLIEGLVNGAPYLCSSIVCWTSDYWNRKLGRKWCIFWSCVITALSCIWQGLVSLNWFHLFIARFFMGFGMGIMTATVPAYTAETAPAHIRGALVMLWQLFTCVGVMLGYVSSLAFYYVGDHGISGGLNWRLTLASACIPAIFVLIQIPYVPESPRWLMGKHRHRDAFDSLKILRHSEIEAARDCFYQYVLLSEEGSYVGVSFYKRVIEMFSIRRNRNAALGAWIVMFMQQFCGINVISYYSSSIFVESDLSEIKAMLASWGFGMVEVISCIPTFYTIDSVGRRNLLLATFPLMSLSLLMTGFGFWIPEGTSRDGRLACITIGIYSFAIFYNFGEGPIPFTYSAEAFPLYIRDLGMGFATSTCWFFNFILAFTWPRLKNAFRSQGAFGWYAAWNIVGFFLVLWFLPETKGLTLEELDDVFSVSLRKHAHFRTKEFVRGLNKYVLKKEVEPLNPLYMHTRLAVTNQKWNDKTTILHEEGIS
molecule,measurement,setting,value
OC[C@@H](O)[C@H](O)[C@H](O)[C@@H](O)CO [D-Galactitol],Km,[1],1.93 ± 0.77 mM
OC[C@@H](O)[C@@H](O)[C@H](O)[C@H](O)CO [D-Mannitol],% reduction of sorbitol uptake at 20 mM,[2],70%
B1,Km,[3],0.30 ± 0.09 mM
same,Km,[4],12.33 ± 1.50 mM
same,Km,[5],11.44 ± 4.46 mM
same,Km,[6],11.51 ± 2.50 mM
same,Km,[7],0.96 ± 0.32 mM
B2,Km,[8],18.64 ± 9.23 mM
B3,Km,[9],0.93 ± 0.16 mM
same,Km,[10],18.31 ± 3.23 mM
same,Km,[11],13.82 ± 2.12 mM
same,Km,[12],0.46 ± 0.21 mM
